Measurements: article PMC6423418 (Human Molecular Genetics, 2018)
Several values for one entry are separate records, joined by “and”; a condition that tells them apart may be missing. Equal values may be shown once.

B1: Wild-type TWINKLE lacking the mitochondrial targeting sequence (residues 1-42) (enzyme, human, UniProt Q96RR1 43-684, looked up)
chain: ETLQALDMPVLPVTATEIRQYLRGHGIPFQDGHSCLRALSPFAESSQLKGQTGVTTSFSLFIDKTTGHFLCMTSLAEGSWEDFQASVEGRGDGAREGFLLSKAPEFEDSEEVRRIWNRAIPLWELPDQEEVQLADTMFGLTKVTDDTLKRFSVRYLRPARSLVFPWFSPGGSGLRGLKLLEAKCQGDGVSYEETTIPRPSAYHNLFGLPLISRRDAEVVLTSRELDSLALNQSTGLPTLTLPRGTTCLPPALLPYLEQFRRIVFWLGDDLRSWEAAKLFARKLNPKRCFLVRPGDQQPRPLEALNGGFNLSRILRTALPAWHKSIVSFRQLREEVLGELSNVEQAAGLRWSRFPDLNRILKGHRKGELTVFTGPTGSGKTTFISEYALDLCSQGVNTLWGSFEISNVRLARVMLTQFAEGRLEDQLDKYDHWADRFEDLPLYFMTFHGQQSIRTVIDTMQHAVYVYDICHVIIDNLQFMMGHEQLSTDRIAAQDYIIGVFRKFATDNNCHVTLVIHPRKEDDDKELQTASIFGSAKASQEADNVLILQDRKLVTGPGKRYLQVSKNRFDGDVGVFPLEFNKNSLTFSIPPKNKARLKKIKDDTGPVAKKPSSGKKGATTQNSEICSGQAPTPDQPDTSKRSK
B2: R334Q TWINKLE (enzyme, human, UniProt Q96RR1 43-684, looked up)
chain: ETLQALDMPVLPVTATEIRQYLRGHGIPFQDGHSCLRALSPFAESSQLKGQTGVTTSFSLFIDKTTGHFLCMTSLAEGSWEDFQASVEGRGDGAREGFLLSKAPEFEDSEEVRRIWNRAIPLWELPDQEEVQLADTMFGLTKVTDDTLKRFSVRYLRPARSLVFPWFSPGGSGLRGLKLLEAKCQGDGVSYEETTIPRPSAYHNLFGLPLISRRDAEVVLTSRELDSLALNQSTGLPTLTLPRGTTCLPPALLPYLEQFRRIVFWLGDDLRSWEAAKLFARKLNPKRCFLVQPGDQQPRPLEALNGGFNLSRILRTALPAWHKSIVSFRQLREEVLGELSNVEQAAGLRWSRFPDLNRILKGHRKGELTVFTGPTGSGKTTFISEYALDLCSQGVNTLWGSFEISNVRLARVMLTQFAEGRLEDQLDKYDHWADRFEDLPLYFMTFHGQQSIRTVIDTMQHAVYVYDICHVIIDNLQFMMGHEQLSTDRIAAQDYIIGVFRKFATDNNCHVTLVIHPRKEDDDKELQTASIFGSAKASQEADNVLILQDRKLVTGPGKRYLQVSKNRFDGDVGVFPLEFNKNSLTFSIPPKNKARLKKIKDDTGPVAKKPSSGKKGATTQNSEICSGQAPTPDQPDTSKRSK
B3: L381P TWINKLE (enzyme, human, UniProt Q96RR1 43-684, looked up)
chain: ETLQALDMPVLPVTATEIRQYLRGHGIPFQDGHSCLRALSPFAESSQLKGQTGVTTSFSLFIDKTTGHFLCMTSLAEGSWEDFQASVEGRGDGAREGFLLSKAPEFEDSEEVRRIWNRAIPLWELPDQEEVQLADTMFGLTKVTDDTLKRFSVRYLRPARSLVFPWFSPGGSGLRGLKLLEAKCQGDGVSYEETTIPRPSAYHNLFGLPLISRRDAEVVLTSRELDSLALNQSTGLPTLTLPRGTTCLPPALLPYLEQFRRIVFWLGDDLRSWEAAKLFARKLNPKRCFLVRPGDQQPRPLEALNGGFNLSRILRTALPAWHKSIVSFRQLREEVLGEPSNVEQAAGLRWSRFPDLNRILKGHRKGELTVFTGPTGSGKTTFISEYALDLCSQGVNTLWGSFEISNVRLARVMLTQFAEGRLEDQLDKYDHWADRFEDLPLYFMTFHGQQSIRTVIDTMQHAVYVYDICHVIIDNLQFMMGHEQLSTDRIAAQDYIIGVFRKFATDNNCHVTLVIHPRKEDDDKELQTASIFGSAKASQEADNVLILQDRKLVTGPGKRYLQVSKNRFDGDVGVFPLEFNKNSLTFSIPPKNKARLKKIKDDTGPVAKKPSSGKKGATTQNSEICSGQAPTPDQPDTSKRSK
B4: W315L TWINKLE (enzyme, human, UniProt Q96RR1 43-684, looked up)
chain: ETLQALDMPVLPVTATEIRQYLRGHGIPFQDGHSCLRALSPFAESSQLKGQTGVTTSFSLFIDKTTGHFLCMTSLAEGSWEDFQASVEGRGDGAREGFLLSKAPEFEDSEEVRRIWNRAIPLWELPDQEEVQLADTMFGLTKVTDDTLKRFSVRYLRPARSLVFPWFSPGGSGLRGLKLLEAKCQGDGVSYEETTIPRPSAYHNLFGLPLISRRDAEVVLTSRELDSLALNQSTGLPTLTLPRGTTCLPPALLPYLEQFRRIVFWLGDDLRSLEAAKLFARKLNPKRCFLVRPGDQQPRPLEALNGGFNLSRILRTALPAWHKSIVSFRQLREEVLGELSNVEQAAGLRWSRFPDLNRILKGHRKGELTVFTGPTGSGKTTFISEYALDLCSQGVNTLWGSFEISNVRLARVMLTQFAEGRLEDQLDKYDHWADRFEDLPLYFMTFHGQQSIRTVIDTMQHAVYVYDICHVIIDNLQFMMGHEQLSTDRIAAQDYIIGVFRKFATDNNCHVTLVIHPRKEDDDKELQTASIFGSAKASQEADNVLILQDRKLVTGPGKRYLQVSKNRFDGDVGVFPLEFNKNSLTFSIPPKNKARLKKIKDDTGPVAKKPSSGKKGATTQNSEICSGQAPTPDQPDTSKRSK
B5: S369P TWINKLE (enzyme, human, UniProt Q96RR1 43-684, looked up)
chain: ETLQALDMPVLPVTATEIRQYLRGHGIPFQDGHSCLRALSPFAESSQLKGQTGVTTSFSLFIDKTTGHFLCMTSLAEGSWEDFQASVEGRGDGAREGFLLSKAPEFEDSEEVRRIWNRAIPLWELPDQEEVQLADTMFGLTKVTDDTLKRFSVRYLRPARSLVFPWFSPGGSGLRGLKLLEAKCQGDGVSYEETTIPRPSAYHNLFGLPLISRRDAEVVLTSRELDSLALNQSTGLPTLTLPRGTTCLPPALLPYLEQFRRIVFWLGDDLRSWEAAKLFARKLNPKRCFLVRPGDQQPRPLEALNGGFNLSRILRTALPAWHKSIVPFRQLREEVLGELSNVEQAAGLRWSRFPDLNRILKGHRKGELTVFTGPTGSGKTTFISEYALDLCSQGVNTLWGSFEISNVRLARVMLTQFAEGRLEDQLDKYDHWADRFEDLPLYFMTFHGQQSIRTVIDTMQHAVYVYDICHVIIDNLQFMMGHEQLSTDRIAAQDYIIGVFRKFATDNNCHVTLVIHPRKEDDDKELQTASIFGSAKASQEADNVLILQDRKLVTGPGKRYLQVSKNRFDGDVGVFPLEFNKNSLTFSIPPKNKARLKKIKDDTGPVAKKPSSGKKGATTQNSEICSGQAPTPDQPDTSKRSK
B6: P335L TWINKLE (enzyme, human, UniProt Q96RR1 43-684, looked up)
chain: ETLQALDMPVLPVTATEIRQYLRGHGIPFQDGHSCLRALSPFAESSQLKGQTGVTTSFSLFIDKTTGHFLCMTSLAEGSWEDFQASVEGRGDGAREGFLLSKAPEFEDSEEVRRIWNRAIPLWELPDQEEVQLADTMFGLTKVTDDTLKRFSVRYLRPARSLVFPWFSPGGSGLRGLKLLEAKCQGDGVSYEETTIPRPSAYHNLFGLPLISRRDAEVVLTSRELDSLALNQSTGLPTLTLPRGTTCLPPALLPYLEQFRRIVFWLGDDLRSWEAAKLFARKLNPKRCFLVRLGDQQPRPLEALNGGFNLSRILRTALPAWHKSIVSFRQLREEVLGELSNVEQAAGLRWSRFPDLNRILKGHRKGELTVFTGPTGSGKTTFISEYALDLCSQGVNTLWGSFEISNVRLARVMLTQFAEGRLEDQLDKYDHWADRFEDLPLYFMTFHGQQSIRTVIDTMQHAVYVYDICHVIIDNLQFMMGHEQLSTDRIAAQDYIIGVFRKFATDNNCHVTLVIHPRKEDDDKELQTASIFGSAKASQEADNVLILQDRKLVTGPGKRYLQVSKNRFDGDVGVFPLEFNKNSLTFSIPPKNKARLKKIKDDTGPVAKKPSSGKKGATTQNSEICSGQAPTPDQPDTSKRSK

Key:
[1] = target: the molecule itself; assay: negative-stain single-particle electron microscopy
[2] = target: the molecule itself; assay: negative-stain single-particle electron microscopy; remark: listed apart in the source

Protein | oligomeric state (%), heptamer [1] [%] | oligomeric state (%), hexamer [1] [%] | stoichiometry N [2] | oligomeric state (%), broken ring [1] [%]
B1 | 41.1 | 58.9 | 6 and 7 | –
B2 | 55.1 | 36.6 | 7 and 6 | 8.3
B3 | 28.6 | 33 | 6 and 7 and 5 | 26.9
B4 | 87.1 | – | 7 | 12.9
B5 | 41.6 | 13.2 | 6 and 7 | 45.2
B6 | 72.3 | 4.7 | 6 and 7 and 8 and 9 | 6.4
